Data: PMC3257281

Key:
[1] = biological target: rabbit intestinal mucin (rabbit); assay: ELISA
[2] = biological target: rabbit intestinal mucin (rabbit)
[3] = biological target: rabbit intestinal mucin (rabbit); assay: binding to mucin-coupled Sepharose resin, Scatchard plot; rabbit mucin coupled to NHS-activated sepharose; different amounts of GbpA protein added to 400 µl resin, 2 h, room temperature; unbound protein measured after centrifugation; Kd from bound vs. bound/free
[4] = biological target: rabbit intestinal mucin (rabbit); assay: binding to mucin-coupled Sepharose resin, Scatchard plot

GbpAD1, GbpA domain 1 (residues 24-203) (from UniProt Q9KLD5 24-203) (domain or fragment)
Kd [1]: 8.7 µM

GbpA(Y61A), full length GbpA with tyrosine 61 changed to alanine (from UniProt Q9KLD5 24-485) (natural protein)
inhibition of binding of biotinylated wild type V. cholerae N16961 to mucin-coated wells pre-treated with increasing concentrations of the protein; value at saturation [2]: 83%
Kd [1]: 14.7 µM
Kd [3]: 14.1 µM

GbpAD3, GbpA domain 3 (domain or fragment)
Kd [1]: 76.4 µM

GbpA_(D1–3), GbpA domains 1 to 3 (residues 24-414) (from UniProt Q9KLD5 24-414) (domain or fragment)
Kd [1]: 13.2 µM
Kd [3]: 12.5 µM

GbpAfl, mature full-length GlcNAc binding protein A (residues 24-485) (from UniProt Q9KLD5 24-485) (natural protein)
inhibition of binding of biotinylated wild type V. cholerae N16961 to mucin-coated wells pre-treated with increasing concentrations of the protein; value at saturation [2]: 83%
Kd [1]: 7.8 µM
Kd [4]: 9.4 µM
